Test: soluble on expression in E. coli; label from the status in PepcDB or PDB records
In the case of “MARKGTTPWHESREMHTQDDADSSLKEQEKTTNKKEQTTAPPEKKLPTIPGKLPKRSVEPPEESRDQKPAGNKPNLKKSPSNPRIPPGGSHPRKKPKVPNRDPSGKHVNSDKKKPSAEAHDKESLSSPPQTDAGKETTKESASTYGASWKSSKPTLKADLKAMEDYITKMPNFHGYICREDAAQILKHPGDWLVRLSVPPSNDQDKKNKAQNLAKSVERTKGHKSTMQKVFVISVLCKGKALSPAKSNNRNLVIKTNNGKFSIDSVHWLVKLKDLFSHYQGTSAVHKNGEFQLLNPISLSKWEFQHEDTELLAKKLGEGAFGEVRVGRLTTKDPKKKLVEVAVKMLKSSADSVTRDQVEELLHETRIMRKLDHPNVLRSYGVAVLREPLYLMIELCSNGALREYLKENHKTITLADKINFVLGSARGVAYLHSQRILHRDLAVRNILLTEDKTPKVSDFGLAELTDRYEMKEHCKIPVRYLAPETLELFIFTPKTDVFSFGCVIWEIYENGQQPHDGKNAQTIRAQVKKREFLKLSSSAPEALRRLVAEKVFVADPENRCSMTSIVQCVETAEKTVK”, the “soluble on expression in E. coli” value was “soluble”. In the case of “MGSDKIHHHHHHVDQVNAYRNSAHLYDLDQRELVTADIPFYLEYAGSFGGGILELGCGTGRIAIPLAEAGHDITALDLSENMLAAFSAKLTNVAAGTKKKLALVQGNMADFSLRKTFDMIIAPFRAFQALTRAEDINGCLACMREHLNDGGIVIINVFRPFGTLDESWCYPETVQWERWDDATGSKVVKKHWGQRIDVENQIIYPGFAYEVMASNGVVERFADNLALKYYYYEQLTTLLQDAGFRIKEEYGWYDKSPIENGRELIFVCTR”, the “soluble on expression in E. coli” value was “not soluble”. With “GSSMKASSGDQGSPPCFLRFPRPVRVVSGAEAELKCVVLGEPPPVVVWEKGGQQLAASERLSFPADGAEHGLLLTAALPTDAGVYVCRARNAAGEAYAAAAVTVLEPPA” the “soluble on expression in E. coli” value was “soluble”. In the case of “MPAPLKQLSWSVGCREIGRNCAISFIDALVNSLLAFRIAKRHTKLASECTWSQGRIDFMSENLNHTERQDRAITAPEFDALGRAPFISSLVKTLVHTDYDTSTGEVRSRRATGFVVGLTGEWGLGKSSVLNLLEHDLKQMEHVAVATLNPWLFKGRDEVVEAYFNALREALGFSSSEKARKLLVHLARYKASIEFVGATTAVVIDFVVGTGSATAIWKKWVLKVVRFLSKSRGLSANEERKNLEAKLAEAKIAIVMLIDELDRVEDEEVRVVAQLVKAVGDIKGISYLVAYDPSRVAQALGKGSTPEEKQKAGESYLEKIIQFPIPLRPLFMDEARDLLLQAMRNNDVTMPAESQSYQTEILNQLLRVIRTPREIKRLIGAFAVLEEIVRGEICPFDVLAYSWLVTKAPSLRERIADNIGQLVDDPSGEEMLARQRQRALATDKERTLTDILGSSAVSHLDILQLLFTRFNARREGSAEFFNGYRLALRRNLIRLLYLGNPPGDFSRRDIEVLWSLTNVDELEAELRRVKETDRLGPLLDRVGDFSASFPEAGDGIFWLALGRALVRENDWIRREEVERSLVDDACATLWRIARDGSEGSRRLRHIVHVLIEGGDLLIVPWLLRKHLFAHGLTNHGDRGRGDCIFEKDETIALRDKELPRYHDAVADGTALKKLPDTELIFCVLNSNYWDSKLKEDFTLQLDSIEAIVSFAALIMPPGIICDKSTLDLMLETDTVLKKANALLRQSGMPESDWLASAVRRLRTVLAGRDIHSADTLRDDFDQEELEHHHHHH”, the “soluble on expression in E. coli” value was “not soluble”. For “YFSAICQARKNVYIETPYFIPDESLLKAIKSAALSGVDVRIIFPKIADHKIVNIASYSYFEEILRAGGKVYLYNKGFIHSKVVIIDDKIASAGTANMDLRSFMLNFEVNAFIYDEEVIRVMTDDFFEDLSYCEELNLEVFKNRNIIQKIKESVARLFSPIL”, the “soluble on expression in E. coli” value was “soluble”. For “MAPSSRWDAMGPKNSYRSVHGRIVPELLESSVARVRPLQYVQRQPSQASARSGANPTHRPSAEVRPVIRTGEMTHSSVIPPLAPGVRRVSLGYESSPSGSLPPLFNQESPWRRQDSYSPQNPAVSHKASLNSTILQGPADAGVVGGQSWNRAWEPARGAASWDTWRNKAVVPPRRSGEPMVSMQAAEEIRILAVITIQAGVRGYLARRRIRLWHRGAMVIQATWRGYRVRRNLAHLCRATTTIQSAWRGYSTRRDQARHWQMLHPVTWVELGSRAGVMSDRSWFQDGRARTVSDHRCFQSCQAHACSVCHSLSSRIGSPPSVVMLVGSSPRTCHTCGRTQPTRVVQGMGQGTEGPGAVSWASAYQLAALSPRQPHRQDKAATAIQSAWRGFKIRQQMRQQQMAAKIVQATWRGHHTRSCLKNTEALLGPADPSASSRHMHWPGI”, the “soluble on expression in E. coli” value was “not soluble”. With “MAHHHHHHMEVKEVQPQKRLQPACDAKGENGFPLTIPCERQKVANLAPHRPLRRFLEAMRADNQNLCALKGSAVHHLKKDLRGDEKQVVLSCETPSRSNRLREKYECMKKMRFNETQEALARECDLSRIIIELQKRIEDAEASREFEREVHARESFYLLKENECLKEQVRTTEKMLLDVRNNYNLEISKLNTRVSDLEDSLVAEGQRAKTREAEQERAIQNLCSNLYTTQGELERYVEKNRELASVNSLLEEMRAESWRDKRECTVWYEVLRRREVFMLLEREAFTELQCLCMQEMNRFWQIKDDSYQAMFCSEAERFLGHIIREAEICYEMKQLMFDNATASIEKETWISLHFSKVQELSRLSEKHEALSILLAQYMREVEEIQQGNLEQVLRRKTVDDASIAYMLHQRDNEVSDKLRTWKGALQEAHKLLTALLKRYEPFQRGDEVFVGRVMEWLISAPHVKEVINVFLP” the “soluble on expression in E. coli” value was “not soluble”. For “MTLPDSKKDQTARHVAILQESYRHYTGRYLFDPKLGASEAIVWLEQAPFALVSHGTQPDPIFNYGNQTALQLFGMTWDEFTRMPSRLSAEPVDRAERTRLLDHVSRDGYIDDYTGVRIAADGRRFLIRHATVWNLLDESGRFYGQAAMIPEWEVLQPVFTAD”, the “soluble on expression in E. coli” value was “not soluble”. In the case of “MPVNIPPLLPEQLLPIPGLSLGTAEASIKRPGRKDILVITLAENTRVAGVFTRNRFCAAPVTVARSHLTGSLPIRALVINTGNANAGTGQSGIDHAHATCASLARLIGCQTQQVLPFSTGVIMEPLPVEKIITHLPQALANLAPDNWFAAAQAIMTTDIVPKGVSRQIQINGTTVTITGIAKGSGMIHPNMATMLGYIATDAAVTQPLLDDLVRYATDRSFNCVTVDGDTSTNDALILMATGQAGNTPITVSTDPAFISLQAAITEVAALLAQMIVRDGEGATKFITVQVESGKTREECTKVAYAIAHSPLIKTACFASDPNLGRILAAIGYAGIEDLDVNLVQLYLGNILVAEHGGRAASYREEDGQRIMQAPEITIQVKLNRGNASTTVWTCDLSYDYVKINADYRSLEHHHHHH”, the “soluble on expression in E. coli” value was “not soluble”. For “MERKLGISLYPEHSTKEKDMAYISAAARHGFSRIFTCLLSVNRPKEEIVAEFKEIINHAKDNNMEVILDVAPAVFDQLGISYSDLSFFAELGADGIRLDVGFDGLTEAKMTNNPYGLKIELNVSNDIAYLENILSHQANKSALIGCHNFYPQKFTGLPYDYFIRCSERFKKHGIRSAAFITSHVANIGPWDINDGLCTLEEHRNLPIEVQAKHLWATGLIDDVIIGNAYASEEELEKLGNLNRYMLQLKVHFVDEATEVEKRATLQELHVRRGDITEYMVRSTEVRKKYKDYDFPVRESVLQERGQVVIGNNSFGKYKGELQIILKEMPIDERKNIVGTIAEEELFLLDYVGAWTQFTCVE”, the “soluble on expression in E. coli” value was “soluble”. With “MSLIPVVLSGGAGTRLWPVSREGQPKPFMRLPDGQTLLGKTYRRAAGLLAGHGEIVTVTNREHYFQSKDQFHAARLGRHRGHFILEPTGRNTAPAIAVAALGLQAEHGDAAVLVVMPADHLIRNEEAFREAVGHAARLAVAGHLVTFGVVPDAAETGFGYIELGDRLDEQGAAKVRRFVEKPDEETRRRYVESGGFLWNSGMFCFTASTLVDELAQHAPALLEQARACLAASAAVKMADGIQHELAGEGFAALPDISIDYALMERSARVAVVPAAFDWSDIGSWGAMSALLDADAEGNRGSGDTLFVDTRNTFVQSDGRLVATVGVDDLVVVDTSDALLIARADRVQEVRRVVQRLKDERHEAYRLHRTVNRPWGSYTVLEEGPRFKIKRIVVRPGERLSLQMHHHRSEHWIVVQGMARVTNGDGARLVNSNESTYIPAGHRHRLENPGVIDLVMIEVQSGEYLGEDDIVRFEDQYGREGHHHHHH” the “soluble on expression in E. coli” value was “not soluble”. With “MGSDKIHHHHHHMNKHIASMLLGALLLNVGCSAIMSEKGFITQDKQVTQFNTEYIEKLAQSLPQHMVNQISIDGDEQVSLKGLFIDNPNSHTLVFFIQGNGMKVDPDSLAVLLTLSQLGTDIAIFDRRGLGASNGQATIANLLTDAIQELTFIRHTYQPDKVIVHGYSLGSFIAAQLVKNQAADALVMQGSATNVDDWIATKIPWYMPFLTVETPESFKLVDNQEVVSKFYQGPLMVIGAEKDDQVPAELSEKLFLASQSKIKSLIIVPKANHGEMLNSAKTMQAYREFLARI” the “soluble on expression in E. coli” value was “not soluble”. With “GPGSMQIRRATMEDMYQMQHCNLRCLPENYNLRYYFYHILSWPQLLYVQEDYNRNIVGYVLAKMEDEEKPANIHGHITSIAVLRTHRRLGIASRVMRASMKEMEKEYDANYCSLHVRKTNDAALHLYQETLGFRCANVEKGYYVDEEDAFHMKKFFKGPNPGLYVAANRQLVRQQNSAAAAVTGMAALQRNGGTAPPPPPPSSSSAGGQRGENDTADLEKEQLKLVAELLEESNKESGKGRQQKQKQQQQSKGGNKRGKTKK” the “soluble on expression in E. coli” value was “soluble”. For “EPVVVSAADGEIRTGNDHLCDLLDSDPSDVFGSQIGTFFPGLDDVDLRAHCSQSPGTPLTSSCSAGGTERWVEIAFEPQQWDG”, the “soluble on expression in E. coli” value was “not soluble”. For “MGSDKIHHHHHHLAARNFPPVLPFSPRKIAVLHAKAVGDFIVILPALDAIKRTYPEAELILLAKPWVKEFFSGRPSPVDRVLSLPPLAGVNDPVESKGRVPSTGSGVYPVEVELFCQAMQGEKLDVVIHMQGDGKSVNPFINKFAARVTAGMCNPPAESLDRSIPYVHYQSEVLRNLEVASLIGARTTSTGFEPRIEVTESDEQETESVRQTIKGKPYVVIHPGADDIRRVWPAVRFAEAADCLLEKGYAVVVTGTPKEEERVATVIRAMSRPAIPCTRLGLCGLAALLQHSALVISNDTGPLHLARAVGARTVGIYWAPNILNWGPLSRDRHRLAIGWQLECPQCGIRPVSPWPFQPQTSDCSHPYSFVESVPVAEVLALATELLGLTTEH”, the “soluble on expression in E. coli” value was “not soluble”. In the case of “MSLNEITVSLDVIIKNKNVMVSSLSVAKAFDRQHSHILRSIEDIKRDWDSLIQSKNGLNRNIIPLKSQGNKQVIFTDYFKESEYIAENGRLVKFFEMNRNGFMLLANSFNGKRILPIKLAFIERFDELEHITLEQAKETENRKNLNQAIKESPHFKPFYYSRFSDFLCQLITHNKYKTVKKLREDKGYYGKQFSKIPLKSMLDSEEDLKRLQKLENSIIAWLEIDYSFREIKAFLTKEKAQPLPTKEGHHHHHH”, the “soluble on expression in E. coli” value was “not soluble”. For “MAAMPKPAAFWNDRFANEEYVYGEAPNRFVASAARTWLPEAGEVLLLGAGEGRNAVHLAREGHTVTAVDYAVEGLRKTERLATEAGVEVEAIQADVREWKPARAWDAVVVTFLHLPADERPGLYRLVQRCLRPGGRLVAEWFRPLEHHHHHH”, the “soluble on expression in E. coli” value was “not soluble”. With “MIASSPIDAAALRASVAAALDPSTAVATLARFDTHAPRLLDALSTLYGDHADYVTWLPQWLSALGVVAQARPAALRHLDDSRAPGWFGQQDMLGYSAYVDRFAGTLRGVAERVPYLQELGVRYLHLLPFLRARAGDNDGGFAVSDYGQVEPALGSNDDLVALTARLRAANISLCADFVLNHTADDHAWAQAARAGDTRYLDYYHHFADRNAPDQYDTTLVQVFPQTAPGNFTWVDETRQWMWTTFYPYQWDLNWSNPAVFGEMALAMLELANLGVEAFRLDSTAYLWKRPGTNCMNQPEAHTILVALRAVADIVAPSVVMKAEAIVPMAELPPYFGSGVQRGHECHLAYHSTLMAAGWSALALQRGDILQDVIAHSPPLPPNCAWLSYVRCHDDIGWNVLQHEAAGTAAQPPFSLREVAQFYANAVPGSYARGESFQSSGDGVHGTNGMSAALVGVQAAHEHADAAAAARAVDRLVLLYAVSLAMPGVPLIYMGDELALPNDTAYLDDAQRRHEGRWLHRPAMAWELAAQRHDASTLAGTVYTRLRALIRLRAGLPALAATQSLGSVALGDARLFALTRGDSFLAVHNFSDVPLPVDLTQTGHALWAVLDTDGTGDAPEPHTELLLPAYGVRWLQRR” the “soluble on expression in E. coli” value was “soluble”.

Reference: the DeepSol protein solubility set
